# Measurements from patent publication US5854388A, “Angiotensin IV peptides and receptor” (Washington State University Research Foundation, priority 1994, dated 1998).
# What was measured:
# AT4 receptor = molecular target: T1, AT4 receptor (Oryctolagus cuniculus, UniProt G1SFU4); experiment: 125I-AIV binding and competition, rabbit heart P2 membranes; settings: competition of 0.5 nM 125I-AIV, 120 min, 37° C.
# T1 sequence (G1SFU4 1-1025): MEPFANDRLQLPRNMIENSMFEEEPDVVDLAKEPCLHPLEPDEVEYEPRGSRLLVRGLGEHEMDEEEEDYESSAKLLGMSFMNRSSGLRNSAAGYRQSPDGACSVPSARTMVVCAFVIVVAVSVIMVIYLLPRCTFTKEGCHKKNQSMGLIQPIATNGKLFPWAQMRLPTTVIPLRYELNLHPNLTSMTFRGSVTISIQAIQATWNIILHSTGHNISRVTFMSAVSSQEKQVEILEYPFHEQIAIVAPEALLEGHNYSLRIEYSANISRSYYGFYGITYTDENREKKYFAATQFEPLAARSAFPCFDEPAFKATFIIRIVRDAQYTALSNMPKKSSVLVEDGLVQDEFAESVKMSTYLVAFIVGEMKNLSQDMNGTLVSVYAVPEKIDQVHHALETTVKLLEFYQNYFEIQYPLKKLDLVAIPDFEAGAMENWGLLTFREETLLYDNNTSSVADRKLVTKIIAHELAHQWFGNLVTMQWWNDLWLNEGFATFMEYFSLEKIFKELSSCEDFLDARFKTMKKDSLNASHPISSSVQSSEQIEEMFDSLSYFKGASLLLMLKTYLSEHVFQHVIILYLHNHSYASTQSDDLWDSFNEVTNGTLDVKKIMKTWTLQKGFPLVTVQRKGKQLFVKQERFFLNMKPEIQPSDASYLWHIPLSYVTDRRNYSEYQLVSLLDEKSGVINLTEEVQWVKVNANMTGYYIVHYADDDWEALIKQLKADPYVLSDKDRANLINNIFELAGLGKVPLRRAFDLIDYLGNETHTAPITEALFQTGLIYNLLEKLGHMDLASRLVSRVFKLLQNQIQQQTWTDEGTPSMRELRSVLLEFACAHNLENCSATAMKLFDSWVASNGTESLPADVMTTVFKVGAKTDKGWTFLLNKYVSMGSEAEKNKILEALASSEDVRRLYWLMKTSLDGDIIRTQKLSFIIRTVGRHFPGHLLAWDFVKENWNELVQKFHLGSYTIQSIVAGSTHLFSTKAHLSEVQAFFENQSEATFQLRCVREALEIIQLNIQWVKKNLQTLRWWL
# [1] = Stability of angiotensin peptides in binding buffer (reverse phase HPLC); format: physicochemical; settings: 4 h at 37° C.
# Procedure: Binding studies were carried out in a buffer (below) containing an extensive cocktail of inhibitors that was designed to minimize metabolism of both the receptor and the test ligand, i.e., the buffer contained 5 mM EDTA, 0.2% BSA, […] Bestatin, 50 μM Plummer's inhibitor, and 100 μM PMSF.
# rat kidney = experiment: Renal cortical blood flow (laser doppler) and arterial pressure after infusion into the renal artery; format: in vivo; settings: infusion into renal artery
substance,measurement,setting,value
Asp1 Arg2 Val3 Tyr4 Ile5 His6 Pro7 Phe8 (DRVYIHPF) [AII],Ki,AT4 receptor,> 1 µM
same,hydrolysis in binding buffer,[1],less than 10%
same,effect on renal blood flow (in words),rat kidney,dramatic decrease in renal blood flow
